Laboratory results published in patent US20250051465A1 (published 2025).

T1: human LEPR extracellular domain expressed with a C-terminal mouse IgG2a Fc tag (hLEPR.mFc) (human)
T1 construct: also called dimeric human LEPR
T1 chain: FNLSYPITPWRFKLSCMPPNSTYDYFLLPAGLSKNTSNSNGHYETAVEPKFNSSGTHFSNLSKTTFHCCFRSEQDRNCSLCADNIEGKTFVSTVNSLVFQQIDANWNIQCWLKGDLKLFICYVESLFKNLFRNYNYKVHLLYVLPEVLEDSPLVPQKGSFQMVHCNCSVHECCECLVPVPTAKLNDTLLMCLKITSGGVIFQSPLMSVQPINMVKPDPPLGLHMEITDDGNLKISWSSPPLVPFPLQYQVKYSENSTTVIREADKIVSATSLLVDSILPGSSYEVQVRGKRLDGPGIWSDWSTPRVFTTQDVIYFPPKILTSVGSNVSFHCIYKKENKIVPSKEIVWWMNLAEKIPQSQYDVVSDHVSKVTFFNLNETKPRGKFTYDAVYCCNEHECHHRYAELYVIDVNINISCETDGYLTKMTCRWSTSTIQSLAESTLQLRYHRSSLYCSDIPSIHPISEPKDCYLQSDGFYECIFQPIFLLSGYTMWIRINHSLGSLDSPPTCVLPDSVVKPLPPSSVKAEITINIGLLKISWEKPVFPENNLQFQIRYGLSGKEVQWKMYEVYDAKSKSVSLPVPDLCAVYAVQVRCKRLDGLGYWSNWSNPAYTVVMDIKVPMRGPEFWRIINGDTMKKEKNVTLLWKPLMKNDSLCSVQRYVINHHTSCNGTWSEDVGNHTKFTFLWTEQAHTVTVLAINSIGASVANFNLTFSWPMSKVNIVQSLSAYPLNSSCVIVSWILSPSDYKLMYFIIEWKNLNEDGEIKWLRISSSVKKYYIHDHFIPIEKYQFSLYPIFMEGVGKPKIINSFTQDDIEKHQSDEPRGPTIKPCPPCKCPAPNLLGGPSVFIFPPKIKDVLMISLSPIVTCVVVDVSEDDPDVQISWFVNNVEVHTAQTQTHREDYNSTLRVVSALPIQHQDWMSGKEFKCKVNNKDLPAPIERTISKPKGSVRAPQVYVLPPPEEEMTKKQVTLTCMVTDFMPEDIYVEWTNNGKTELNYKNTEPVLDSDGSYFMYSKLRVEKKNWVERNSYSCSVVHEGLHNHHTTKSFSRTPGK

B1: H4H16650P2 (antibody, human IgG4, V domains shown)
VH: QVQLVESGGGVVQPGKSLRLSCVASGFTFSSDAMYWVRQAPGKGLEWVAVIYYDGNYQYYEDSVKGRFTISRDNSQNTLDLQMNSLRVDDTAVYFCARLNWDYWYLDLWGRGTLVTVSS
VL: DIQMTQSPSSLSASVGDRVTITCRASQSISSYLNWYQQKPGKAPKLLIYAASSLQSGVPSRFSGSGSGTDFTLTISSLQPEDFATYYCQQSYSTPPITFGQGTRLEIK
notes: Fully human antibody with human IgG4 Fc (H4H prefix)
B2: H4H18417P2 (antibody, human IgG4, V domains shown)
VH: QVQLVESGGGVVQPGRSLRLSCAASGFTFSTYGMHWVRQAPGKGLEWVSVISYDESNKYYADSVKGRFTISRDNSKNALYLQMNSLRNEDTAVYYCARDRPFGLVTGWFDPWGQGTLVTVSS
VL: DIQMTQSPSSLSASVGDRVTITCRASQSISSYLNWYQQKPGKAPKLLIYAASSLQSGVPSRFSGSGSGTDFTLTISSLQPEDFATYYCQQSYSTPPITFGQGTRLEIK
notes: as for B1
B3: H4H16679P2 (antibody, human IgG4, V domains shown)
VH: QVQLVESGGGVVQPGRSLRLSCTASGFTFSSYAMYWVRQAPGKGLEWVSVIYYDGSYKYYADSVKGRFTISRDNSKNTLYLQMDSLRAEDTAVYYCASYNWNYWYFDFWGRGTLVTVSS
VL: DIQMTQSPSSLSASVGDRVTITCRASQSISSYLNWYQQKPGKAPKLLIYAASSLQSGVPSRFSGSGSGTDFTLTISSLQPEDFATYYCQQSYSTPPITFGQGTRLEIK
notes: as for B1
B4: H4H17321P2 (antibody, human IgG4, V domains shown)
VH: QVQLVESGGGVVQPGRSLRLSCEASGFSSSDNAMYWVRQAPGKGLEWVSVIYHDGSYKYYEDSVKGRFTIARDNSKNTLYLQMNSLRAEDTAVYYCARYNWNHWYFDVWGRGTLVTVSS
VL: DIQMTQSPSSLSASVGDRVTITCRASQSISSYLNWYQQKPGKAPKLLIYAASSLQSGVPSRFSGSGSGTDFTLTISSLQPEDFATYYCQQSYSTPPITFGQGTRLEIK
notes: as for B1

What was measured:
[1] = molecular target: T2, human LEPR CRH1 (D1,D2,D3)-MMH (human, UniProt P48357 22-427, limits assumed); experiment: Luminex, myc-captured LEPR domain
T2 construct: domain: CRH1-Ig (D1,D2,D3); Transiently expressed, captured from supernatant on anti-myc beads; also called CRH1-Ig (D1, D2, D3)
Description: Aliquots of microspheres with immobilized anti-myc monoclonal antibodies, prepared as described above, were added individually to 1 mL of the each of these protein supernatants. The microspheres were gently mixed, incubated for two hours at 25° C., washed twice with 1 mL of DBPS, centrifuged to remove the supernatant and finally resuspended in 1 mL of DPBS buffer. Forty-eight μL of anti-myc IgG coupled microspheres from individual reactions with full length human LEPR and with each of the human LEPR domain proteins were withdrawn and mixed together in 3.6 mL of PBS+20 mg/mL BSA+0.05% sodium azide (blocking buffer).
From this mixed pool, 75 μL of microspheres were plated per well on a 96 well filter plate (Millipore, Cat. No: MSBVN1250) and mixed with 25 μL of individual anti-human LEPR monoclonal antibodies (0.5 or 5 µg/mL), incubated for two hours at 25° C. and then washed twice with 200 μL of DPBS with 0.05% Tween 20 (washing buffer). […] After 30 minutes, the samples were washed twice with 200 μL of washing buffer and resuspended in 150 μL of wash buffer. The Median Fluorescence intensity (MFI) of the microspheres was measured in a Luminex Analyzer.

[2] = molecular target: T3, human LEPR extracellular domain expressed with a C-terminal myc-myc-hexahistidine tag (hLEPR.mmh) (human, UniProt P48357 22-839); experiment: SPR, captured mAb, 25C
T3 construct: also called human LEPR-MMH; monomeric human LEPR
Description: (§1) Equilibrium dissociation constants (KD values) for LEPR binding to purified anti-LEPR monoclonal antibodies were determined using a real-time surface plasmon resonance biosensor using a Biacore 4000 instrument. All binding studies were performed in 10 mM HEPES, 150 mM NaCl, 3 mM EDTA, and 0.05% v/v Surfactant Tween-20, pH 7.4 (HBS-ET) running buffer at 25° C. and 37° C. The Biacore sensor surface was first derivatized by amine coupling with a monoclonal mouse anti-human Fc antibody (GE, #BR-1008-39) to capture anti-LEPR monoclonal antibodies. […] Kinetic association (kₐ) and dissociation (kd) rate constants were determined by fitting the real-time binding sensorgrams to a 1:1 binding model with mass transport limitation using Scrubber 2.0c curve-fitting software. Binding dissociation equilibrium constants (KD) and dissociative half-lives (t½) were calculated from the kinetic rate constants as: […]

[3] = molecular target: T1, human LEPR extracellular domain …; experiment: SPR, captured mAb, 25C
Description: as §1

[4] = molecular target: T4, Macaca fascicularis LEPR extracellular domain expressed with a C-terminal myc-myc-hexahistidine tag … (Macaca fascicularis, UniProt Q9MYL0 22-837 (rhesus entry)); experiment: SPR, captured mAb, 25C
T4 construct: also called mfLEP.MMH
Description: as §1

[5] = molecular target: T3, human LEPR extracellular domain …; experiment: SPR, captured mAb, 37C
Description: as §1

[6] = molecular target: T1, human LEPR extracellular domain …; experiment: SPR, captured mAb, 37C
Description: as §1

[7] = molecular target: T4, Macaca fascicularis LEPR extracellular …; experiment: SPR, captured mAb, 37C
Description: as §1

| Binder | MFI [1] | 100 nM hLEPR-MMH Bound (RU) [2] | Kd [2] | koff [2] | kon [2] | t½ [2] | 100 nM hLEPR-mFc Bound (RU) [3] | Kd [3] | koff [3] | kon [3] | t½ [3] | 100 nM mfLEP.MMH Bound (RU) [4] | Kd [4] | koff [4] | kon [4] | t½ [4] | 100 nM hLEPR-MMH Bound (RU) [5] | Kd [5] | koff [5] | kon [5] | further results |
| --- | --- | --- | --- | --- | --- | --- | --- | --- | --- | --- | --- | --- | --- | --- | --- | --- | --- | --- | --- | --- | --- |
| B1 | 2560 MFI | 51 RU | 7.93 nM | 0.000223 s⁻¹ | 28100 M⁻¹ s⁻¹ | 52 min | 102 RU | 0.785 nM | 8.32e-05 s⁻¹ | 106000 M⁻¹ s⁻¹ | 139 min | 93 RU | 2.27 nM | 0.000137 s⁻¹ | 60200 M⁻¹ s⁻¹ | 84 min | 77 RU | 19.8 nM | 0.000958 s⁻¹ | 48500 M⁻¹ s⁻¹ | t½ [5]: 12 min; 100 nM hLEPR-mFc Bound (RU) [6]: 145 RU; Kd [6]: 1.79 nM; koff [6]: 0.00028 s⁻¹; kon [6]: 157000 M⁻¹ s⁻¹; t½ [6]: 41 min; 100 nM mfLEPR.MMH Bound (RU) [7]: 134 RU; Kd [7]: 5.76 nM; koff [7]: 0.0007 s⁻¹; kon [7]: 122000 M⁻¹ s⁻¹; t½ [7]: 16 min |
| B2 | 3330 MFI | 28 RU | 129 nM | 0.0079 s⁻¹ | 61400 M⁻¹ s⁻¹ | 1.5 min | 90 RU | 4.04 nM | 0.000563 s⁻¹ | 140000 M⁻¹ s⁻¹ | 21 min | 33 RU | 139 nM | 0.0123 s⁻¹ | 88300 M⁻¹ s⁻¹ | 0.9 min | 22 RU | 233 nM | 0.018 s⁻¹ | 77000 M⁻¹ s⁻¹ | t½ [5]: 0.6 min; 100 nM hLEPR-mFc Bound (RU) [6]: 111 RU; Kd [6]: 5.64 nM; koff [6]: 0.00105 s⁻¹; kon [6]: 185000 M⁻¹ s⁻¹; t½ [6]: 11 min; 100 nM mfLEPR.MMH Bound (RU) [7]: 28 RU; Kd [7]: 217 nM; koff [7]: 0.0263 s⁻¹; kon [7]: 122000 M⁻¹ s⁻¹; t½ [7]: 0.4 min |
| B3 | 2800 MFI | 39 RU | 10.5 nM | 0.000246 s⁻¹ | 23400 M⁻¹ s⁻¹ | 47 min | 78 RU | 1.66 nM | 9.68e-05 s⁻¹ | 58400 M⁻¹ s⁻¹ | 119 min | 66 RU | 3.22 nM | 0.000141 s⁻¹ | 43700 M⁻¹ s⁻¹ | 82 min | 61 RU | 21.9 nM | 0.000842 s⁻¹ | 38400 M⁻¹ s⁻¹ | t½ [5]: 14 min; 100 nM hLEPR-mFc Bound (RU) [6]: 116 RU; Kd [6]: 2.56 nM; koff [6]: 0.00031 s⁻¹; kon [6]: 121000 M⁻¹ s⁻¹; t½ [6]: 37 min; 100 nM mfLEPR.MMH Bound (RU) [7]: 104 RU; Kd [7]: 10.4 nM; koff [7]: 0.000677 s⁻¹; kon [7]: 64900 M⁻¹ s⁻¹; t½ [7]: 17 min |
| B4 | 1750 MFI | 32 RU | 8.31 nM | 0.000196 s⁻¹ | 23600 M⁻¹ s⁻¹ | 59 min | 65 RU | 2.18 nM | 8.93e-05 s⁻¹ | 41000 M⁻¹ s⁻¹ | 129 min | 75 RU | 4.07 nM | 0.000133 s⁻¹ | 32600 M⁻¹ s⁻¹ | 87 min | 61 RU | 14.8 nM | 0.000438 s⁻¹ | 29500 M⁻¹ s⁻¹ | t½ [5]: 26 min; 100 nM hLEPR-mFc Bound (RU) [6]: 110 RU; Kd [6]: 3.15 nM; koff [6]: 0.000174 s⁻¹; kon [6]: 55300 M⁻¹ s⁻¹; t½ [6]: 66 min; 100 nM mfLEPR.MMH Bound (RU) [7]: 143 RU; Kd [7]: 5.18 nM; koff [7]: 0.000257 s⁻¹; kon [7]: 49700 M⁻¹ s⁻¹; t½ [7]: 45 min |
